Measurements published in article PMC10718521, “Complexity of αvβ6-integrin targeting RGD peptide trimers: emergence of non-specific binding by synergistic interaction” (RSC Medicinal Chemistry, 2023).

Experiments:
[1] = assay type: physicochemical; conditions: pH 7.4
Method: The trimers were labeled with ^68Ga for biodistribution and small-animal PET experiments employing a fully automated method.[39] Non-radioactive reference compounds were obtained by complexation of equimolar amounts of ^natGa^3+ in form of the aq. chloride solution.[39] The polarity of the ^68Ga or ^natGa^3+ containing conjugates, respectively, was assessed by two established proxies, namely the n-octanol/water distribution coefficient at pH 7.4, log D7.4, and the retention time tR on a reverse-phase HPLC column with a suitable liquid-phase gradient (10–50% acetonitrile in water with 0.1% trifluoroacetic acid) (see Fig. 2a). […] A measurable decrease of the log D7.4 was only observed for ≥3 Tyr. […]
(§1) Unless otherwise noted, the materials and the instrumentation used (analytical and preparative HPLC, ESI-MS, gamma counter, centrifuge), and the experimental procedures (^68Ga radiolabeling and radio-TLC for quality control, determination of log D7.4, cultivation of H2009 human lung adenocarcinoma cells, generation of tumor xenografts in CB17 SCID mice, small-animal PET, and biodistribution) were described before.[19] All animal experiments have been carried out according to applicable law and institutional guidelines of Technical University of Munich, and were approved by the responsible local authority (Regierung von Oberbayern). The H2009 cells were regularly authenticated and tested for mycoplasma contamination. The affinities of the pentynoic amide functionalized peptides were determined employing a well-established ELISA protocol on immobilized integrins.[36] TRAP-triazide,[38]FF (previously termed AvB6),[32] and YY (also referred to as Tyr2-alkyne)[33] were synthesized as described previously. RP-HPLC for assessment of compound polarity was done on a 150 × 4.6 mm ReproSil-Pur 120 C18-AQ 5 μm column, with a flow of 0.75 mL min^−1 and a gradient of 10–50% MeCN in water, both containing 0.1% trifluoroacetic acid, within 15 min. The required ^natGa-complexes of the peptide trimers were synthesized by reaction with equimolar amounts of aq. GaCl3 as described.[19]

in vivo = test: in vivo; parameters: species or system mice; conditions: CB17 SCID, mouse, total radioactivity
Description: The biodistribution of all ^68Ga-labeled peptide trimers was investigated in severe combined immunodeficiency (SCID) mice bearing subcutaneous xenografts of the αvβ6-integrin expressing human lung adenocarcinoma cell line H2009 on their right shoulders.
as §1

[2] = tumor/organ ratio Heart (myocard)
[3] = tumor/organ ratio Large intestine (empty)
[4] = tumor/organ ratio Small intestine (empty)
[5] = tumor/organ ratio Stomach (empty)

For `CC(C)C[C@@H]1NC(=O)[C@H](CC(=O)O)NC(=O)CNC(=O)[C@H](CCCNC(=N)N)NC(=O)[C@H](Cc2ccccc2)NC(=O)[C@H](CCCCNC(=O)CCc2cn(CCCNC(=O)CCP(=O)(O)CN3CCN(CP(=O)(O)CCC(=O)NCCCn4cc(CCC(=O)NCCCC[C@H]5C(=O)N[C@@H](Cc6ccccc6)C(=O)N[C@@H](CCCNC(=N)N)C(=O)NCC(=O)N[C@@H](CC(=O)O)C(=O)N[C@@H](CC(C)C)C(=O)N[C@@H](C)C(=O)N[C@@H](Cc6ccccc6)C(=O)N6CCC[C@@H]6C(=O)N5C)nn4)CCN(CP(=O)(O)CCC(=O)NCCCn4cc(CCC(=O)NCCCC[C@H]5C(=O)N[C@@H](Cc6ccccc6)C(=O)N[C@@H](CCCNC(=N)N)C(=O)NCC(=O)N[C@@H](CC(=O)O)C(=O)N[C@@H](CC(C)C)C(=O)N[C@@H](C)C(=O)N[C@@H](Cc6ccc(O)cc6)C(=O)N6CCC[C@@H]6C(=O)N5C)nn4)CC3)nn2)N(C)C(=O)[C@H]2CCCN2C(=O)[C@H](Cc2ccccc2)NC(=O)[C@H](C)NC1=O` (68Ga complex, metal not drawn) [Y1F], the “log D7.4” value [1] was −1.4 to −1.5, the logD [1] was -1.4 ± 0.1 and the tissue uptake at 1.5 h (in vivo; Adrenals uptake) was 1.26 ± 0.24 %ID/g. The tissue uptake at 1.5 h (in vivo; Blood uptake) was 2.57 ± 0.33 %ID/g, the tissue uptake at 1.5 h (in vivo; Heart (myocard) uptake) was 1.2 ± 0.16 %ID/g and the tissue uptake at 1.5 h (in vivo; Kidneys uptake) was 111 ± 15.3 %ID/g. For the same compound, the tissue uptake at 1.5 h (in vivo; Large intestine (empty) uptake) was 4.43 ± 1.28 %ID/g, the tissue uptake at 1.5 h (in vivo; Liver uptake) was 3.86 ± 0.17 %ID/g and the tissue uptake at 1.5 h (in vivo; Lung uptake) was 8.81 ± 0.64 %ID/g. For the same compound, the tissue uptake at 1.5 h (in vivo; Muscle uptake) was 0.97 ± 0.48 %ID/g, the tissue uptake at 1.5 h (in vivo; Pancreas uptake) was 0.61 ± 0.1 %ID/g and the tissue uptake at 1.5 h (in vivo; Small intestine (empty) uptake) was 2.86 ± 0.57 %ID/g. For the same compound, the tissue uptake at 1.5 h (in vivo; Spleen uptake) was 3.48 ± 0.49 %ID/g, the tissue uptake at 1.5 h (in vivo; Stomach (empty) uptake) was 7.37 ± 1.23 %ID/g and the tissue uptake at 1.5 h (in vivo; Tumor H2009 uptake) was 8.08 ± 1.35 %ID/g. The tissue to tissue ratio at 1.5 h (in vivo; tumor/organ ratio Adrenals) was 6.5 ± 0.8, the tissue to tissue ratio at 1.5 h (in vivo; tumor/organ ratio Blood) was 3.2 ± 0.6 and the tissue to tissue ratio at 1.5 h (in vivo; [2]) was 6.8 ± 1.2. For the same compound, the tissue to tissue ratio at 1.5 h (in vivo; tumor/organ ratio Kidneys) was 0.1, the tissue to tissue ratio at 1.5 h (in vivo; [3]) was 2 ± 0.9 and the tissue to tissue ratio at 1.5 h (in vivo; tumor/organ ratio Liver) was 2.1 ± 0.4. The tissue to tissue ratio at 1.5 h (in vivo; tumor/organ ratio Lung) was 0.9 ± 0.1, the tissue to tissue ratio at 1.5 h (in vivo; tumor/organ ratio Muscle) was 9.5 ± 3.2 and the tissue to tissue ratio at 1.5 h (in vivo; tumor/organ ratio Pancreas) was 13.3 ± 2.3. For the same compound, the tissue to tissue ratio at 1.5 h (in vivo; [4]) was 2.9 ± 0.9, the tissue to tissue ratio at 1.5 h (in vivo; tumor/organ ratio Spleen) was 2.4 ± 0.2 and the tissue to tissue ratio at 1.5 h (in vivo; [5]) was 1.1 ± 0.3.
With `CC(C)C[C@@H]1NC(=O)[C@H](CC(=O)O)NC(=O)CNC(=O)[C@H](CCCNC(=N)N)NC(=O)[C@H](Cc2ccccc2)NC(=O)[C@H](CCCCNC(=O)CCc2cn(CCCNC(=O)CCP(=O)(O)CN3CCN(CP(=O)(O)CCC(=O)NCCCn4cc(CCC(=O)NCCCC[C@H]5C(=O)N[C@@H](Cc6ccccc6)C(=O)N[C@@H](CCCNC(=N)N)C(=O)NCC(=O)N[C@@H](CC(=O)O)C(=O)N[C@@H](CC(C)C)C(=O)N[C@@H](C)C(=O)N[C@@H](Cc6ccccc6)C(=O)N6CCC[C@@H]6C(=O)N5C)nn4)CCN(CP(=O)(O)CCC(=O)NCCCn4cc(CCC(=O)NCCCC[C@H]5C(=O)N[C@@H](Cc6ccc(O)cc6)C(=O)N[C@@H](CCCNC(=N)N)C(=O)NCC(=O)N[C@@H](CC(=O)O)C(=O)N[C@@H](CC(C)C)C(=O)N[C@@H](C)C(=O)N[C@@H](Cc6ccccc6)C(=O)N6CCC[C@@H]6C(=O)N5C)nn4)CC3)nn2)N(C)C(=O)[C@H]2CCCN2C(=O)[C@H](Cc2ccccc2)NC(=O)[C@H](C)NC1=O` (68Ga complex, metal not drawn) [Y1Y] the “log D7.4” value [1] was −1.4 to −1.5, the logD [1] was -1.5 ± 0.1 and the tissue uptake at 1.5 h (in vivo; Adrenals uptake) was 1.57 ± 0.41 %ID/g. The tissue uptake at 1.5 h (in vivo; Blood uptake) was 2.54 ± 0.37 %ID/g, the tissue uptake at 1.5 h (in vivo; Heart (myocard) uptake) was 1.54 ± 0.61 %ID/g and the tissue uptake at 1.5 h (in vivo; Kidneys uptake) was 91.2 ± 9.95 %ID/g. For the same compound, the tissue uptake at 1.5 h (in vivo; Large intestine (empty) uptake) was 4.1 ± 0.84 %ID/g, the tissue uptake at 1.5 h (in vivo; Liver uptake) was 4.39 ± 0.46 %ID/g and the tissue uptake at 1.5 h (in vivo; Lung uptake) was 6.76 ± 2.02 %ID/g. For the same compound, the tissue uptake at 1.5 h (in vivo; Muscle uptake) was 0.75 ± 0.17 %ID/g, the tissue uptake at 1.5 h (in vivo; Pancreas uptake) was 0.64 ± 0.11 %ID/g and the tissue uptake at 1.5 h (in vivo; Small intestine (empty) uptake) was 2.72 ± 0.36 %ID/g. The tissue uptake at 1.5 h (in vivo; Spleen uptake) was 3.85 ± 0.86 %ID/g, the tissue uptake at 1.5 h (in vivo; Stomach (empty) uptake) was 6.78 ± 0.72 %ID/g and the tissue uptake at 1.5 h (in vivo; Tumor H2009 uptake) was 8.16 ± 2.01 %ID/g. For the same compound, the tissue to tissue ratio at 1.5 h (in vivo; tumor/organ ratio Adrenals) was 5.3 ± 1.5, the tissue to tissue ratio at 1.5 h (in vivo; tumor/organ ratio Blood) was 3.2 ± 0.7 and the tissue to tissue ratio at 1.5 h (in vivo; [2]) was 5.7 ± 2. For the same compound, the tissue to tissue ratio at 1.5 h (in vivo; tumor/organ ratio Kidneys) was 0.1, the tissue to tissue ratio at 1.5 h (in vivo; [3]) was 2 ± 0.5 and the tissue to tissue ratio at 1.5 h (in vivo; tumor/organ ratio Liver) was 1.8 ± 0.3. It also gave a tissue to tissue ratio at 1.5 h (in vivo; tumor/organ ratio Lung) of 1.2 ± 0.2, a tissue to tissue ratio at 1.5 h (in vivo; tumor/organ ratio Muscle) of 11.2 ± 3.4 and a tissue to tissue ratio at 1.5 h (in vivo; tumor/organ ratio Pancreas) of 12.7 ± 2.9. It also gave a tissue to tissue ratio at 1.5 h (in vivo; [4]) of 3 ± 0.7, a tissue to tissue ratio at 1.5 h (in vivo; tumor/organ ratio Spleen) of 2.2 ± 0.5 and a tissue to tissue ratio at 1.5 h (in vivo; [5]) of 1.2 ± 0.2.
With `CC(C)C[C@@H]1NC(=O)[C@H](CC(=O)O)NC(=O)CNC(=O)[C@H](CCCNC(=N)N)NC(=O)[C@H](Cc2ccccc2)NC(=O)[C@H](CCCCNC(=O)CCc2cn(CCCNC(=O)CCP(=O)(O)CN3CCN(CP(=O)(O)CCC(=O)NCCCn4cc(CCC(=O)NCCCC[C@H]5C(=O)N[C@@H](Cc6ccccc6)C(=O)N[C@@H](CCCNC(=N)N)C(=O)NCC(=O)N[C@@H](CC(=O)O)C(=O)N[C@@H](CC(C)C)C(=O)N[C@@H](C)C(=O)N[C@@H](Cc6ccc(O)cc6)C(=O)N6CCC[C@@H]6C(=O)N5C)nn4)CCN(CP(=O)(O)CCC(=O)NCCCn4cc(CCC(=O)NCCCC[C@H]5C(=O)N[C@@H](Cc6ccccc6)C(=O)N[C@@H](CCCNC(=N)N)C(=O)NCC(=O)N[C@@H](CC(=O)O)C(=O)N[C@@H](CC(C)C)C(=O)N[C@@H](C)C(=O)N[C@@H](Cc6ccc(O)cc6)C(=O)N6CCC[C@@H]6C(=O)N5C)nn4)CC3)nn2)N(C)C(=O)[C@H]2CCCN2C(=O)[C@H](Cc2ccccc2)NC(=O)[C@H](C)NC1=O` (68Ga complex, metal not drawn) [Y2F] the “log D7.4” value [1] was −1.4 to −1.5, the logD [1] was -1.5 ± 0.1 and the tissue uptake at 1.5 h (in vivo; Adrenals uptake) was 0.84 ± 0.07 %ID/g. The tissue uptake at 1.5 h (in vivo; Blood uptake) was 1.62 ± 0.2 %ID/g, the tissue uptake at 1.5 h (in vivo; Heart (myocard) uptake) was 0.76 ± 0.06 %ID/g and the tissue uptake at 1.5 h (in vivo; Kidneys uptake) was 107 ± 7.49 %ID/g. For the same compound, the tissue uptake at 1.5 h (in vivo; Large intestine (empty) uptake) was 3.96 ± 1.16 %ID/g, the tissue uptake at 1.5 h (in vivo; Liver uptake) was 2.09 ± 0.17 %ID/g and the tissue uptake at 1.5 h (in vivo; Lung uptake) was 5.62 ± 1.34 %ID/g. The tissue uptake at 1.5 h (in vivo; Muscle uptake) was 0.66 ± 0.12 %ID/g, the tissue uptake at 1.5 h (in vivo; Pancreas uptake) was 0.38 ± 0.04 %ID/g and the tissue uptake at 1.5 h (in vivo; Small intestine (empty) uptake) was 2.51 ± 0.5 %ID/g. It also gave a tissue uptake at 1.5 h (in vivo; Spleen uptake) of 3.84 ± 1.14 %ID/g, a tissue uptake at 1.5 h (in vivo; Stomach (empty) uptake) of 6.99 ± 3.4 %ID/g and a tissue uptake at 1.5 h (in vivo; Tumor H2009 uptake) of 7.99 ± 1.62 %ID/g. It also gave a tissue to tissue ratio at 1.5 h (in vivo; tumor/organ ratio Adrenals) of 9.6 ± 2.2, a tissue to tissue ratio at 1.5 h (in vivo; tumor/organ ratio Blood) of 4.9 ± 1 and a tissue to tissue ratio at 1.5 h (in vivo; [2]) of 10.6 ± 2. The tissue to tissue ratio at 1.5 h (in vivo; tumor/organ ratio Kidneys) was 0.1, the tissue to tissue ratio at 1.5 h (in vivo; [3]) was 2.1 ± 0.5 and the tissue to tissue ratio at 1.5 h (in vivo; tumor/organ ratio Liver) was 3.8 ± 0.9. The tissue to tissue ratio at 1.5 h (in vivo; tumor/organ ratio Lung) was 1.4 ± 0.2, the tissue to tissue ratio at 1.5 h (in vivo; tumor/organ ratio Muscle) was 12.2 ± 1.5 and the tissue to tissue ratio at 1.5 h (in vivo; tumor/organ ratio Pancreas) was 20.8 ± 3.9. For the same compound, the tissue to tissue ratio at 1.5 h (in vivo; [4]) was 3.2 ± 0.4, the tissue to tissue ratio at 1.5 h (in vivo; tumor/organ ratio Spleen) was 2.2 ± 0.5 and the tissue to tissue ratio at 1.5 h (in vivo; [5]) was 1.3 ± 0.3.
